{"source": "paper PMC12032302", "about": "“A20 attenuates oxidized self-DNA-mediated inflammation in acute kidney injury” (Signal Transduction and Targeted Therapy, 2025)", "binders": {"B1": {"name": "A20-derived peptide P-II (peptide)", "peptide": "KLVALKTNGDGNCLMHAACQYMWGVQDTD", "notes": "peptide generated according to the OTU domain of A20; also called NEK7 targeting peptide; source: synthetic peptide (constructed by GeneWiz; for BLI: Bootech BioScience &Technology)"}}, "key": {"[1]": {"target": "T1, HA-NEK7 (mouse NIMA-related kinase 7, wild type) (mouse, UniProt Q9ES74 1-302)", "T1 construct": "NEK7, mouse, cDNA amplified from a mouse cDNA library; also called WT-NEK7; HA-WT-NEK7; source: HEK293T, transiently transfected, in lysate; for BLI purified with HA antibody, eluted with 0.1 M glycine pH 2.0", "T1 sequence (Q9ES74 whole entry)": "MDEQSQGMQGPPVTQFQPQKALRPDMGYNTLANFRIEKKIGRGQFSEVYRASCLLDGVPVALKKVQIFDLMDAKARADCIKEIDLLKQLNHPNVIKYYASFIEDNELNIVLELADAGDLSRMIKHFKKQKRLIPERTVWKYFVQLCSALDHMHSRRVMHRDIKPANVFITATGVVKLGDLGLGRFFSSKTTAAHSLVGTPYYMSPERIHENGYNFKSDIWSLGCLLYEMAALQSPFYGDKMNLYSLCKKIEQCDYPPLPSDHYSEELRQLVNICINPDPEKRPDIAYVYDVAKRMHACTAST", "assay": "BLI; 3×HA-NEK7 (WT or Tri-MUT) purified from HEK293T with HA antibody; legend: P-II diluted into the indicated concentrations; methods: peptide immobilised on AR2G biosensors; 1:1 binding model", "conditions": "both partners purified"}, "[2]": {"target": "T2, recombinant human NEK7 protein (human, UniProt Q8TDX7 1-302)", "T2 construct": "NEK7, human, recombinant; source: bought: SinoBiological", "T2 sequence (Q8TDX7 whole entry)": "as the sequence (Q9ES74 whole entry) above, with T14P, S52A, D150E, I273M, I285V, A286T, T302S counted along it", "assay": "BLI; peptide immobilised on Octet AR2G biosensors at 400 μg/ml for 500 s; recombinant human NEK7 39.0625 to 1250 nM, association 120 s, dissociation 120 s; 1:1 binding model", "conditions": "both partners purified"}}}
{"binder": "B1", "values": [{"measurement": "binding result", "setting": "[1]", "result": "binds"}, {"measurement": "binding result", "setting": "[2]", "result": "binds"}]}
